From patent publication US20100130424A1 (Janssen / Centocor, published 2010)
No end group written: not given here. *: point of attachment. Succinimide(1-Et,3-yl) = CCN1C(=O)CC(*)C1=O

T1: human CRH receptor type 2 (human, UniProt Q13324 1-411)
T1 sequence (looked up): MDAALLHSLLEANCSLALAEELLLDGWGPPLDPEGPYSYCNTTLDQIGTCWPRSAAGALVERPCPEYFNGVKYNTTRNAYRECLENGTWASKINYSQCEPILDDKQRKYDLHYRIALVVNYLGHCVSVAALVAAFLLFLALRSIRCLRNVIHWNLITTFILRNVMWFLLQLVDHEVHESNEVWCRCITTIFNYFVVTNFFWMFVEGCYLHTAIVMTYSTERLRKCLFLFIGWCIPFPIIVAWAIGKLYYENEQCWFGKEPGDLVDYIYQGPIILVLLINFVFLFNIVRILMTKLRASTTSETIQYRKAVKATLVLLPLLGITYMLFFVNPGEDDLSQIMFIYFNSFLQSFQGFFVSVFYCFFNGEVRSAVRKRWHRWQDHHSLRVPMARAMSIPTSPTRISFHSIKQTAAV

B1: Pegylated Cys-variant CRHR2 peptide agonist (NES-PEG-NEM MW20000), SEQ ID NO: 98 (peptide)
peptide: TKFTLSLDVPTNIMNLLFNIAKAKNLRCQAAANAHLMAQI
modifications: NES-PEG-NEM MW20000 on Cys 28 (double-ended linear PEG with an N-Ethylmaleimide cap at the non-linked end); C-terminal amide
B2: Cys-variant of stresscopin peptide with N-Ethylsuccinimide (NES) reactive group, SEQ ID NO: 46 (peptide)
peptide: TKFTLSLDVPTNIMNLLFNIAKAKNLRAQAC(Succinimide(1-Et,3-yl))ANAHLMAQI-NH2
modifications: N-terminus assumed
SMILES: CC[C@H](C)[C@H](NC(=O)[C@H](CCC(N)=O)NC(=O)[C@H](C)NC(=O)[C@H](CCSC)NC(=O)[C@H](CC(C)C)NC(=O)[C@H](Cc1c[nH]cn1)NC(=O)[C@H](C)NC(=O)[C@H](CC(N)=O)NC(=O)[C@H](C)NC(=O)[C@H](CSC1CC(=O)N(CC)C1=O)NC(=O)[C@H](C)NC(=O)[C@H](CCC(N)=O)NC(=O)[C@H](C)NC(=O)[C@H](CCCNC(=N)N)NC(=O)[C@H](CC(C)C)NC(=O)[C@H](CC(N)=O)NC(=O)[C@H](CCCCN)NC(=O)[C@H](C)NC(=O)[C@H](CCCCN)NC(=O)[C@H](C)NC(=O)[C@@H](NC(=O)[C@H](CC(N)=O)NC(=O)[C@H](Cc1ccccc1)NC(=O)[C@H](CC(C)C)NC(=O)[C@H](CC(C)C)NC(=O)[C@H](CC(N)=O)NC(=O)[C@H](CCSC)NC(=O)[C@@H](NC(=O)[C@H](CC(N)=O)NC(=O)[C@@H](NC(=O)[C@@H]1CCCN1C(=O)[C@@H](NC(=O)[C@H](CC(=O)O)NC(=O)[C@H](CC(C)C)NC(=O)[C@H](CO)NC(=O)[C@H](CC(C)C)NC(=O)[C@@H](NC(=O)[C@H](Cc1ccccc1)NC(=O)[C@H](CCCCN)NC(=O)[C@@H](N)[C@@H](C)O)[C@@H](C)O)C(C)C)[C@@H](C)O)[C@@H](C)CC)[C@@H](C)CC)C(N)=O
B3: Cys-variant of stresscopin peptide with N-Ethylsuccinimide (NES) reactive group, SEQ ID NO: 44 (peptide)
peptide: TKFTLSLDVPTNIMNLLFNIAKAKNLRAQAAAC(Succinimide(1-Et,3-yl))AHLMAQI-NH2
modifications: N-terminus assumed
SMILES: CC[C@H](C)[C@H](NC(=O)[C@H](CCC(N)=O)NC(=O)[C@H](C)NC(=O)[C@H](CCSC)NC(=O)[C@H](CC(C)C)NC(=O)[C@H](Cc1c[nH]cn1)NC(=O)[C@H](C)NC(=O)[C@H](CSC1CC(=O)N(CC)C1=O)NC(=O)[C@H](C)NC(=O)[C@H](C)NC(=O)[C@H](C)NC(=O)[C@H](CCC(N)=O)NC(=O)[C@H](C)NC(=O)[C@H](CCCNC(=N)N)NC(=O)[C@H](CC(C)C)NC(=O)[C@H](CC(N)=O)NC(=O)[C@H](CCCCN)NC(=O)[C@H](C)NC(=O)[C@H](CCCCN)NC(=O)[C@H](C)NC(=O)[C@@H](NC(=O)[C@H](CC(N)=O)NC(=O)[C@H](Cc1ccccc1)NC(=O)[C@H](CC(C)C)NC(=O)[C@H](CC(C)C)NC(=O)[C@H](CC(N)=O)NC(=O)[C@H](CCSC)NC(=O)[C@@H](NC(=O)[C@H](CC(N)=O)NC(=O)[C@@H](NC(=O)[C@@H]1CCCN1C(=O)[C@@H](NC(=O)[C@H](CC(=O)O)NC(=O)[C@H](CC(C)C)NC(=O)[C@H](CO)NC(=O)[C@H](CC(C)C)NC(=O)[C@@H](NC(=O)[C@H](Cc1ccccc1)NC(=O)[C@H](CCCCN)NC(=O)[C@@H](N)[C@@H](C)O)[C@@H](C)O)C(C)C)[C@@H](C)O)[C@@H](C)CC)[C@@H](C)CC)C(N)=O
B4: Cys-variant of stresscopin peptide with N-Ethylsuccinimide (NES) reactive group, SEQ ID NO: 42 (peptide)
peptide: TKFTLSLDVPTNIMNLLFNIAKAKNLRAQAAANAHLMAQC(Succinimide(1-Et,3-yl))-NH2
modifications: N-terminus assumed
SMILES: CC[C@H](C)[C@H](NC(=O)[C@H](CC(N)=O)NC(=O)[C@H](Cc1ccccc1)NC(=O)[C@H](CC(C)C)NC(=O)[C@H](CC(C)C)NC(=O)[C@H](CC(N)=O)NC(=O)[C@H](CCSC)NC(=O)[C@@H](NC(=O)[C@H](CC(N)=O)NC(=O)[C@@H](NC(=O)[C@@H]1CCCN1C(=O)[C@@H](NC(=O)[C@H](CC(=O)O)NC(=O)[C@H](CC(C)C)NC(=O)[C@H](CO)NC(=O)[C@H](CC(C)C)NC(=O)[C@@H](NC(=O)[C@H](Cc1ccccc1)NC(=O)[C@H](CCCCN)NC(=O)[C@@H](N)[C@@H](C)O)[C@@H](C)O)C(C)C)[C@@H](C)O)[C@@H](C)CC)C(=O)N[C@@H](C)C(=O)N[C@@H](CCCCN)C(=O)N[C@@H](C)C(=O)N[C@@H](CCCCN)C(=O)N[C@@H](CC(N)=O)C(=O)N[C@@H](CC(C)C)C(=O)N[C@@H](CCCNC(=N)N)C(=O)N[C@@H](C)C(=O)N[C@@H](CCC(N)=O)C(=O)N[C@@H](C)C(=O)N[C@@H](C)C(=O)N[C@@H](C)C(=O)N[C@@H](CC(N)=O)C(=O)N[C@@H](C)C(=O)N[C@@H](Cc1c[nH]cn1)C(=O)N[C@@H](CC(C)C)C(=O)N[C@@H](CCSC)C(=O)N[C@@H](C)C(=O)N[C@@H](CCC(N)=O)C(=O)N[C@@H](CSC1CC(=O)N(CC)C1=O)C(N)=O
B5: Cys-variant of stresscopin peptide with N-Ethylsuccinimide (NES) reactive group, SEQ ID NO: 43 (peptide)
peptide: TKFTLSLDVPTNIMNLLFNIAKAKNLRAQAAANAC(Succinimide(1-Et,3-yl))LMAQI-NH2
modifications: N-terminus assumed
SMILES: CC[C@H](C)[C@H](NC(=O)[C@H](CCC(N)=O)NC(=O)[C@H](C)NC(=O)[C@H](CCSC)NC(=O)[C@H](CC(C)C)NC(=O)[C@H](CSC1CC(=O)N(CC)C1=O)NC(=O)[C@H](C)NC(=O)[C@H](CC(N)=O)NC(=O)[C@H](C)NC(=O)[C@H](C)NC(=O)[C@H](C)NC(=O)[C@H](CCC(N)=O)NC(=O)[C@H](C)NC(=O)[C@H](CCCNC(=N)N)NC(=O)[C@H](CC(C)C)NC(=O)[C@H](CC(N)=O)NC(=O)[C@H](CCCCN)NC(=O)[C@H](C)NC(=O)[C@H](CCCCN)NC(=O)[C@H](C)NC(=O)[C@@H](NC(=O)[C@H](CC(N)=O)NC(=O)[C@H](Cc1ccccc1)NC(=O)[C@H](CC(C)C)NC(=O)[C@H](CC(C)C)NC(=O)[C@H](CC(N)=O)NC(=O)[C@H](CCSC)NC(=O)[C@@H](NC(=O)[C@H](CC(N)=O)NC(=O)[C@@H](NC(=O)[C@@H]1CCCN1C(=O)[C@@H](NC(=O)[C@H](CC(=O)O)NC(=O)[C@H](CC(C)C)NC(=O)[C@H](CO)NC(=O)[C@H](CC(C)C)NC(=O)[C@@H](NC(=O)[C@H](Cc1ccccc1)NC(=O)[C@H](CCCCN)NC(=O)[C@@H](N)[C@@H](C)O)[C@@H](C)O)C(C)C)[C@@H](C)O)[C@@H](C)CC)[C@@H](C)CC)C(N)=O
B6: Cys-variant of stresscopin peptide with N-Ethylsuccinimide (NES) reactive group, SEQ ID NO: 45 (peptide)
peptide: TKFTLSLDVPTNIMNLLFNIAKAKNLRAQAAC(Succinimide(1-Et,3-yl))NAHLMAQI-NH2
modifications: N-terminus assumed
SMILES: CC[C@H](C)[C@H](NC(=O)[C@H](CCC(N)=O)NC(=O)[C@H](C)NC(=O)[C@H](CCSC)NC(=O)[C@H](CC(C)C)NC(=O)[C@H](Cc1c[nH]cn1)NC(=O)[C@H](C)NC(=O)[C@H](CC(N)=O)NC(=O)[C@H](CSC1CC(=O)N(CC)C1=O)NC(=O)[C@H](C)NC(=O)[C@H](C)NC(=O)[C@H](CCC(N)=O)NC(=O)[C@H](C)NC(=O)[C@H](CCCNC(=N)N)NC(=O)[C@H](CC(C)C)NC(=O)[C@H](CC(N)=O)NC(=O)[C@H](CCCCN)NC(=O)[C@H](C)NC(=O)[C@H](CCCCN)NC(=O)[C@H](C)NC(=O)[C@@H](NC(=O)[C@H](CC(N)=O)NC(=O)[C@H](Cc1ccccc1)NC(=O)[C@H](CC(C)C)NC(=O)[C@H](CC(C)C)NC(=O)[C@H](CC(N)=O)NC(=O)[C@H](CCSC)NC(=O)[C@@H](NC(=O)[C@H](CC(N)=O)NC(=O)[C@@H](NC(=O)[C@@H]1CCCN1C(=O)[C@@H](NC(=O)[C@H](CC(=O)O)NC(=O)[C@H](CC(C)C)NC(=O)[C@H](CO)NC(=O)[C@H](CC(C)C)NC(=O)[C@@H](NC(=O)[C@H](Cc1ccccc1)NC(=O)[C@H](CCCCN)NC(=O)[C@@H](N)[C@@H](C)O)[C@@H](C)O)C(C)C)[C@@H](C)O)[C@@H](C)CC)[C@@H](C)CC)C(N)=O

Target: T1, human CRH receptor type 2
Assay: cell-based or functional assay

| Log DR against h-SCP, cAMP [log10 ratio] | pA50, cAMP | Binder |
| --- | --- | --- |
| 1 | 8.74 -log M | TKFTLSLDVPTNIMNLLFNIAKAKNLRCQAAANAHLMAQI (NES-PEG MW5000 on Cys 28; C-terminal amide) [Pegylated Cys-variant CRHR2 peptide agonist (NES-PEG MW5000), SEQ ID NO: 96] |
| 0.8 | 8.94 -log M | TKFTLSLDVPTNIMNLLFNIAKAKNLRCQAAANAHLMAQI (NES-PEG MW30000 on Cys 28; C-terminal amide) [Pegylated Cys-variant CRHR2 peptide agonist (NES-PEG MW30000), SEQ ID NO: 99] |
| 1.1 | 8.64 -log M | TKFTLSLDVPTNIMNLLFNIAKAKNLRCQAAANAHLMAQI (NES-PEG MW40000 on Cys 28; C-terminal amide) [Pegylated Cys-variant CRHR2 peptide agonist (NES-PEG MW40000), SEQ ID NO: 100] |
| 0.18 | 9.5 -log M | B1 |
| ~0.74 | ~9 -log M | TKFTLSLDVPTNIMNLLFNIAKAKNLRCQAAANAHLMAQI (NES-PEG MW12000 on Cys 28; C-terminal amide) [Pegylated Cys-variant CRHR2 peptide agonist (NES-PEG MW12000), SEQ ID NO: 97] |
| 0.04 | 9.43 -log M | B2 |
| ~1.97 | ~7.5 -log M | B3 |
| ~1.72 | ~7.75 -log M | B4 |
| -0.32 | 9.79 -log M | B5 |
| -0.01 | 9.48 -log M | B6 |
